Experimental data taken from doi:10.1101/843383.

Legend:
[1] = target: GST-Ubx NES-mutated (Drosophila); assay: pull-down
[2] = target: VC-Ubx^NES (NES-mutated full length Ubx fused to the C-terminal fragment of Venus) (Drosophila); assay: split reporter

percent loss of pulled-down Emb against wild type GST-Ubx [1] | percent decrease of BiFC fluorescence in the nucleus against wild type Ubx [2] | Substance
30% |  | VC-Emb, in S2R+ cell extract (from UniProt Q9TVM2 1-1063) (natural protein)
 | 40% | VN-Emb (Embargoed fused to the N-terminal fragment of Venus) (from UniProt Q9TVM2 1-1063) (natural protein)
